# Reference: the supplement of paper PMC9732359
# ± gives the uncertainty stated by the source.
# Test: protein stability index of a GFP-peptide fusion (yeast GPS) (PSI 1-4); higher = more stable; sorted into four equal gates, so the index is relative within each strain
# In short: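 Tiled yeast protein peptides of 17 residues were each joined downstream of GFP, on plasmids that also express Cherry. The pooled library was maintained in yeast, and mid-log cultures in leucine-free medium were sorted into four equal gates on the GFP/Cherry ratio. Plasmids from every gate were amplified by PCR and sequenced on Illumina, with barcodes linking reads to strains. The protein stability index of a peptide is its gate-number-weighted read frequency summed over the gates.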
Sequence,protein stability index (doa10∆),protein stability index (pdr5∆),protein stability index (san1∆),protein stability index (ubr1∆)
DPETTATQKESLEMVPK [RGR1],3.12 ± 0.063,3.07 ± 0.054,2.94 ± 0.048,3.11 ± 0.046
NFKKFNERRKDLAERAS [SMC3],1.47 ± 0.061,1.97 ± 0.073,1.57 ± 0.11,2.05 ± 0.097
SDEEENNNNKSINKNNK [SSN2],2.94 ± 0.07,3.02 ± 0.079,2.72 ± 0.065,3.07 ± 0.08
LNIRIQTYGETTAVDAL [RPC19],2.02 ± 0.12,1.09 ± 0.11,1.19 ± 0.28,1.15 ± 0.077
AKLESLLENSVDKNFDK [MTW1],3.39 ± 0.06,3.24 ± 0.076,3.34 ± 0.048,3.32 ± 0.066
LTYKSELSKSRALQENG [YMR153W/NUP53],1.89 ± 0.063,1.95 ± 0.041,2.01 ± 0.085,1.87 ± 0.034
VPTGGASSAAAGAAGAA [RPP2B],2.88 ± 0.11,3.04 ± 0.083,3.17 ± 0.07,2.97 ± 0.1
MQKHGYIGEFEYIDDHR [RPS22A],3.16 ± 0.083,3.19 ± 0.084,2.93 ± 0.07,3.24 ± 0.093
LDEVDAALDLSHTQNIG [SMC2],3.07 ± 0.17,3.21 ± 0.1,3.02 ± 0.11,3.12 ± 0.067
SKYGMLLLRCDDRVDKK [POP3],3.34 ± 0.14,3.35 ± 0.087,3.03 ± 0.076,3.09 ± 0.077
YFLHLSVFNAELLKLLN [YCS4],1.26 ± 0.053,1.61 ± 0.058,1.8 ± 0.099,1.51 ± 0.053
SYANLPGTITHGMFSSA [FAS1],2.64 ± 0.06,2.15 ± 0.051,2.16 ± 0.055,2.51 ± 0.035
QEETVVEQTAEVTIEDA [RPS12],3.36 ± 0.12,3.38 ± 0.13,3.19 ± 0.048,3.33 ± 0.056
TLHLVLRLRGGIIEPSL [RPL40A],2.99 ± 0.056,2.81 ± 0.049,2.58 ± 0.056,2.77 ± 0.044
ESTETGYVIKVFNNGIV [DIS3],2.34 ± 0.19,3.08 ± 0.21,2.13 ± 0.14,1.21 ± 0.24
SKLDIYTQQQALEYIGA [RET1],1.94 ± 0.12,2.23 ± 0.1,2.59 ± 0.12,1.89 ± 0.13
VKLTYNSPSSALRALQE [YDL088C/ASM4],2.42 ± 0.058,2.44 ± 0.066,2.62 ± 0.088,2.03 ± 0.038
NQQQPPQDILSKLYLLL [SNF11],2.09 ± 0.042,2.55 ± 0.051,2.47 ± 0.056,2.54 ± 0.045
APTRELVQQIQKETQKV [PRP28],2.8 ± 0.087,3.14 ± 0.078,2.95 ± 0.06,3.14 ± 0.065

Sequence,protein stability index (doa10∆),protein stability index (pdr5∆),protein stability index (san1∆),protein stability index (ubr1∆)
DLIHKSEAFPSLQSCSV [SMC4],2.53 ± 0.085,2.32 ± 0.061,2.47 ± 0.067,2 ± 0.041
PAEVGRAIRSEKYGKQV [BRR2],3.27 ± 0.22,3.15 ± 0.073,–,–
PNKVKTEDIRIRAQNFK [RRP6],2.75 ± 0.061,2.88 ± 0.082,2.56 ± 0.077,2.84 ± 0.039
MDRTQTFIKDCLFTKCL [POP4],1.75 ± 0.05,1.75 ± 0.056,1.7 ± 0.1,1.94 ± 0.044
NTLILRGPRNSREAVRH [RPL18A],2.53 ± 0.25,2.89 ± 0.18,–,–
SIEMEEETDDEDKQNIE [RRI2],3.25 ± 0.13,3.32 ± 0.11,3.39 ± 0.062,3.19 ± 0.061
NAGPNSNIPNLLRNLES [YDL088C/ASM4],2.35 ± 0.043,1.96 ± 0.043,2.23 ± 0.073,2.46 ± 0.031
IVGKSNVLVTMPVAPTM [YMR129W/POM152],2.66 ± 0.12,2.56 ± 0.08,2.07 ± 0.17,2.65 ± 0.055
MLRRHAAPPSTNFEILN [DIS3],1.87 ± 0.11,1.8 ± 0.1,1.71 ± 0.18,2.93 ± 0.074
HPTTIESLREIPYGPDF [SEC65],3.06 ± 0.069,3.17 ± 0.06,3.01 ± 0.058,2.99 ± 0.049
FDTSIKLDIISDPESER [RPN14],2.7 ± 0.061,2.94 ± 0.082,2.59 ± 0.071,2.9 ± 0.068
QSALSQIIRLFYSKNRL [ISW2],2.62 ± 0.066,2.49 ± 0.059,1.87 ± 0.095,2.61 ± 0.053
LVVLTDVVERLHKNFES [RGR1],2.49 ± 0.093,2.74 ± 0.073,2.61 ± 0.12,2.96 ± 0.053
GTSVISMKYDNGVIIAA [PRE4],2.05 ± 0.19,–,–,–
LSKIKFPESIWKDFTVE [YCG1],2.59 ± 0.049,1.89 ± 0.04,1.87 ± 0.06,2 ± 0.03
VRTSATFRLPKTLKLAR [RPL25],2.84 ± 0.1,2.35 ± 0.12,1.74 ± 0.26,2.72 ± 0.14
DVQARRQFVSNVRSVIR [RPP1],2.02 ± 0.15,2.5 ± 0.12,1.65 ± 0.23,2.44 ± 0.13
TEKKFTKEQYAAESKKY [RPL5],3.2 ± 0.16,3.07 ± 0.14,2.98 ± 0.075,3.02 ± 0.11
GELRSYLKGATGHSQGL [FAS1],–,–,–,3.87 ± 0.22

Sequence,protein stability index (doa10∆),protein stability index (pdr5∆),protein stability index (san1∆),protein stability index (ubr1∆)
QGGNNELGTAVGKLFRV [RPL30],2.5 ± 0.12,2.83 ± 0.093,2.45 ± 0.06,2.84 ± 0.076
KLKLLRMERIKDHLLLE [RPT2],2.27 ± 0.079,2.05 ± 0.064,2.12 ± 0.092,1.86 ± 0.054
EPIYGVQYKLLSISVPS [SNU114],2.18 ± 0.12,2.76 ± 0.18,2.02 ± 0.18,3.09 ± 0.11
IKTFYWLEQFLSCVKND [NUT1],1.31 ± 0.052,1.26 ± 0.038,1.18 ± 0.061,1.13 ± 0.035
SLHNTEKIMENKYPELL [AAR2],2.94 ± 0.052,3.18 ± 0.058,3 ± 0.038,2.86 ± 0.034
EASNTPIEHQFNPYGDN [PRE7],3.15 ± 0.08,3.33 ± 0.089,3.54 ± 0.091,3.38 ± 0.086
IKKIVADLKKGKDLSPA [QCR2],3.5 ± 0.24,3.15 ± 0.2,3.11 ± 0.26,–
IGLRQFQQIQYENKQLY [POP1],2.84 ± 0.085,2.81 ± 0.061,2.92 ± 0.048,2.79 ± 0.047
AEQSFDQQSPWLLRLEL [RPO21],3 ± 0.052,3.14 ± 0.051,3.1 ± 0.039,3.11 ± 0.04
LNRQNDITDGKDYHTLA [RPS18A],3.13 ± 0.069,3.33 ± 0.061,3.27 ± 0.05,3.11 ± 0.06
TEDRYNEYVAKVSAREK [FAS2],3.2 ± 0.086,3.14 ± 0.074,3.04 ± 0.094,3.3 ± 0.06
MHKQLAYILAAQKTSFE [RPN1],2.37 ± 0.056,2.46 ± 0.064,2.29 ± 0.067,2.43 ± 0.063
TARRNVSGDAAALFRLH [SWI3],2.43 ± 0.093,2.98 ± 0.099,2.78 ± 0.086,1.95 ± 0.063
DVNIIGKDRIAINVFPE [RPO31],2.75 ± 0.12,3.05 ± 0.12,2.88 ± 0.098,3.36 ± 0.086
YIKSATLYSVKSKEDMK [SNU114],3.22 ± 0.17,3.31 ± 0.13,3.18 ± 0.082,3.11 ± 0.087
TKTPGPGGQAALRALAR [RPS14A],2.64 ± 0.042,2.27 ± 0.031,2.39 ± 0.042,2.3 ± 0.029
RNFLETVELQVGLKNYD [RPL1A],3.01 ± 0.087,3.08 ± 0.079,3.1 ± 0.091,3.15 ± 0.074
FKFSGTVSSDVFKLNPS [YLR335W/NUP2],3 ± 0.29,–,–,–
